In PMC9540345:

Target: FLAG-HA epitope-tagged H3.1 (UniProt P68431)
Experiment: proximity ligation

DAXX (death domain-associated protein 6) (from UniProt Q9UER7 1-740) (natural protein)
fold enrichment of PLA foci over empty vector control cells: 1.9 fold
